Consider one substance from patent US20020192214A1.

The assay deals with human eosinophil eotaxin receptor CC CKR3, stably expressed in AML14.3D10 cells (human) (UniProt P51677). Description: cell-based or functional assay.
Sequence of human eosinophil eotaxin receptor CC CKR3, stably expressed in AML14.3D10 cells (human) (P51677 whole entry): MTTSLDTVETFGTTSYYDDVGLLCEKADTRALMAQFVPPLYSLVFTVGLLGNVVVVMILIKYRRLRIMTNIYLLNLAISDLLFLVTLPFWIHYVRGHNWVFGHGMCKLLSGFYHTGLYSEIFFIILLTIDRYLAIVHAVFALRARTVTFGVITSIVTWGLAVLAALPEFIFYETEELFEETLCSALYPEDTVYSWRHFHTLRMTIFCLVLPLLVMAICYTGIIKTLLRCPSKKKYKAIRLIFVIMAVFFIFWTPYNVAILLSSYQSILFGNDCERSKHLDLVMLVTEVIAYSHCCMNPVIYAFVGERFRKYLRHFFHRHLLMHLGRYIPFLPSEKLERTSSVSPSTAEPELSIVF

The substance “IL-8 (from UniProt P10145 28-99) (ligand)” displayed a Ca^2+-flux (intracellular Ca^2+ levels) of more than 1 µM.
